The values below come from patent US20190338027A1 (ALLAKOS, published 2019).

The test addresses human Siglec-8 on lung mast cells from COPD patients (human, UniProt Q9NYZ4 17-499). Put plainly: cell-based or functional assay.

Chain of human Siglec-8 on lung mast cells from COPD patients (Q9NYZ4 17-499): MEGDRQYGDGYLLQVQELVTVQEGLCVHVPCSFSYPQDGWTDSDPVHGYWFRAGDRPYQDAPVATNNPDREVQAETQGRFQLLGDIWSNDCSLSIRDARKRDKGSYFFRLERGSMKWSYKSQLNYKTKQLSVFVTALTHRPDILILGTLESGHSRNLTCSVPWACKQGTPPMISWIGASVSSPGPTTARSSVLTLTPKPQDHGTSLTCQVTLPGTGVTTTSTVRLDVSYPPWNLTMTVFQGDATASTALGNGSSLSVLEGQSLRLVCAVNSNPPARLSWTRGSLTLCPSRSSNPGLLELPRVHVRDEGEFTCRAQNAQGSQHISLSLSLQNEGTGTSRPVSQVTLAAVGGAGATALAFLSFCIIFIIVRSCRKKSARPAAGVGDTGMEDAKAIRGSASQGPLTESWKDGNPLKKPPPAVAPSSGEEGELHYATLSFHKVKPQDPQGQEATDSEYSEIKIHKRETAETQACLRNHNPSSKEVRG

B1: anti-Siglec-8 IgG4 antibody (HEKA) (antibody, V domains shown)
VH: EVQLVESGGGLVQPGGSLRLSCAASGFSLTIYGAHWVRQAPGKGLEWVGVIWAGGSTNYNSALMSRFTISKDNSKNTVYLQMNSLRAEDTAVYYCARDGSSPYYYSMEYWGQGTTVTVSS
VL: EIVLTQSPATLSLSPGERATLSCSATSSVSYMHWFQQKPGQAPRLLIYSTSNLASGIPARFSGSGSGTDFTLTISSLEPEDFAVYYCQQRSSYPFTFGPGTKLDIKR
Regarding B1, the “decrease in VEGF secreted into the cell supernatant by COPD lung tissue homogenates incubated overnight with antibody, relative to isotype control antibody” value is around 50%.
